In publication PMC4042526:

Target: Tbx20^eh1mut-EGFP (mouse) (UniProt Q9ES03)
Test: affinity purification with mass spectrometry

UniProt Q9ES03, sequence (Q9ES03 whole entry F18L/S19I): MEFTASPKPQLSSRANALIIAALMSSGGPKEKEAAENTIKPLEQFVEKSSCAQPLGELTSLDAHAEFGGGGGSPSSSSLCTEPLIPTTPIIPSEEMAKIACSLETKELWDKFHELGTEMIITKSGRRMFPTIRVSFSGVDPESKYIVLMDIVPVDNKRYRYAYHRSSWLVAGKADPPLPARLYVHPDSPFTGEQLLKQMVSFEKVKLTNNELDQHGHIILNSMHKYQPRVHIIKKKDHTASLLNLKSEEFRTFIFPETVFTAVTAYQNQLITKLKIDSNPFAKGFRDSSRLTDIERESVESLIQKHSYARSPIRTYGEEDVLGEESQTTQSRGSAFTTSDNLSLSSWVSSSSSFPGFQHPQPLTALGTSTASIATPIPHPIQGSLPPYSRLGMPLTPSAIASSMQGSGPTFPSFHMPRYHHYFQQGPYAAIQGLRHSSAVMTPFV

| Substance | fold decrease in eh1mut against wild-type Tbx20 (MS1-based) [fold] |
| --- | --- |
| Transducin-like enhancer of split 1 (from UniProt Q04724 1-770) (natural protein) | > 10 |
| Transducin-like enhancer of split 3 (from UniProt Q04726 1-772) (natural protein) | > 10 |
